Laboratory results taken from WO2001072771A2.

Key:
[1] = target: soluble IGF-1 receptor (human) (UniProt P08069); assay: phage ELISA
[2] = target: soluble human insulin receptor (IR-Fc) (human) (UniProt P06213); assay: phage ELISA
[3] = target: soluble IGF-1 receptor (human) (UniProt P08069); assay: phage ELISA; non-fat milk blank 0.11
[4] = target: soluble human insulin receptor (IR-Fc) (human) (UniProt P06213); assay: phage ELISA; non-fat milk blank 0.11
[5] = target: soluble IGF-1 receptor (human) (UniProt P08069); assay: phage ELISA; non-fat milk blank 0.09
[6] = target: soluble human insulin receptor (IR-Fc) (human) (UniProt P06213); assay: phage ELISA; non-fat milk blank 0.09
[7] = target: soluble IGF-1 receptor (human) (UniProt P08069); assay: phage ELISA; non-fat milk blank 0.10
[8] = target: soluble human insulin receptor (IR-Fc) (human) (UniProt P06213); assay: phage ELISA; non-fat milk blank 0.10

Binder	ratio over background [1]	ratio over background [2]	other results
HLADGQFHEKFYDWFERQISSRCNDC [H2CA-3-E11-IGFR]	2.2	1	–
QGGSASFYDAIDRLLRMRIGG [20E2A-4-F11-IGFR]	18.8	1.3	–
NYRRQVFNGNFYDWFDRQVFSLVTPG [H2CA-3-D8-IGFR]	7.2	1.8	–
RLFYCGIQALGANLGYSGCV [R20 -4-20A12-IR]	39.9	2.4	–
GFREGNFYEWFQAQVT [E4D -4-H2-IR]	33.9	8.2	–
LSCLAYSRHGIWRPSTDLGLGRSVGEGSVSTRWRGYDWFE [40F-4-D1-IGFR]	4.6	0.3	–
FYDAIDQLVRGSARAGGTRD [R20α-3-20E2-IR]	39.9	3.1	absorbance (405 nm) [3]: 2.15; absorbance (405 nm) [4]: 1.01
SMFVAGSDRWPGYGVLADWL [F2 phage]	–	–	absorbance (405 nm) [5]: 2.08; absorbance (405 nm) [6]: 1.43
APDPSDFQEIFYDWFVRQVSRMPGGG [H2CA-1-A3-IGFR]	3.8	0.8	–
GVRAMSFYDALVSVLGLGPSG [20E2B-1-A6-IGFR]	18.1	1.1	–
RAGSSDFHEDFYEWFVRQVSLSLKGK [H2CA-2-B9-IGFR]	7	1.7	–
QAVQPGFHEEFYDWFVRQVSTGVGGG [H2CA-4-H4-IGFR]	4.1	1	–
CCLLCRFQQNFYDWFVCQGISRLRPL [H2CA-2-B4-IGFR]	4.1	1.1	–
CCTTEMWMDARDDPFYHKLSELVTGG [B6Hα-1-B5-IR]	20.5	1	–
RGCNDDGGKGWSDDPFYHKLSELICGG [B6Hα-1-A2-IR]	14.6	1	–
VRGFQGGTVWPGYEWLRNAA [R20β-4-E8-IR]	34.9	3.6	absorbance (405 nm) [7]: 2; absorbance (405 nm) [8]: 1.34
LKDGFYDYFWQRLHLGS [NNRPγ-4-B11-IR]	18.7	1.2	–
QSPVGSSHEDFYDWFFRQVAQSGAHQ [H2CA-3-D6-IGFR]	9	2.2	–
SRAKVEAEMPDSGDPFYHKLSELLASG [B6Hα-1-A3-IR]	2.6	0.8	–
TSEVQRRSQDNFYDWFVAQVA [A6S-3-E2-IR]	24.7	9.8	–
RCGRELYHSTFYDWFDRQVAGRTCPS [H2CA-1-A7-IGFR]	2.2	0.6	–
VNQSGSIHENFYDWFERQVSHQRGVR [H2CA-4-F10-IGFR]	5.7	1	–
LGYQEPFQQNFYDWFVRQVSGAENAG [H2CA-3-E8-IGFR]	6.3	2.2	–
SSCDGAGHESFYEWFVRQVSGCRSV [H2CA-3-C8-IGFR]	5.6	1.2	–
GIISQSCPESFYDWFAGQVSDPWWCW [H2CA-4-G9-IGF]	9.5	0.6	–
TFYSCLASLLTGTPQPNRGPWERCR [20C-3-G3-IGFR]	32.3	1.2	–
